Where no end group is shown, it is not given here. [ ]: non-standard residue; d: D form. NMeL = CN[C@@H](CC(C)C)C(=O)O; Nle = CCCC[C@H](N)C(=O)O
T1: human NK2 Receptor (human, UniProt P21452 1-398)
T1 construct: whole, on cells; calcium assays used intact CHO-hNK2 cells; also called hNK2R; hNK2
T1 sequence (looked up): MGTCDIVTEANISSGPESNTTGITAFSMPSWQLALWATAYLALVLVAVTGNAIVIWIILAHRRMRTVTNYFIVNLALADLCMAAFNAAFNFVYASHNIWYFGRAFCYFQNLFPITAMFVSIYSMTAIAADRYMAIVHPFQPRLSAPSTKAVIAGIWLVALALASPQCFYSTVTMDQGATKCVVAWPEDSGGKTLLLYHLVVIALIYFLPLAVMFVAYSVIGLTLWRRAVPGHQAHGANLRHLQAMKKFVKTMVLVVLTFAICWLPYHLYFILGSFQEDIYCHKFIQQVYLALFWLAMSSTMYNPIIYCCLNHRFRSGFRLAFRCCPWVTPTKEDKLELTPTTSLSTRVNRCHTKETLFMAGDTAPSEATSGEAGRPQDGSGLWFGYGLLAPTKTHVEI

B1: Heptapeptide analog J, Asp-Arg-Phe-Val-Gly-Leu-Nle-NH2 (peptide)
peptide: DRFVGLX
HELM: PEPTIDE1{D.R.F.V.G.L.[Nle].[am]}$$$$V2.0; N-terminus assumed
SMILES: CCCC[C@H](NC(=O)[C@H](CC(C)C)NC(=O)CNC(=O)[C@@H](NC(=O)[C@H](Cc1ccccc1)NC(=O)[C@H](CCCNC(=N)N)NC(=O)[C@@H](N)CC(=O)O)C(C)C)C(N)=O
notes: synthetic heptapeptide analog of neurokinin A, Fmoc solid-phase synthesis; also called Compound J; Cmpd J
B2: Heptapeptide analog A, Asp-Lys-Phe-Val-Gly-(NMe-Leu)-Met-NH2 (peptide)
peptide: DKFVG[NMeL]M-NH2
notes: synthetic heptapeptide analog of neurokinin A, Fmoc solid-phase synthesis; also called Compound A; Cmpd A
B3: Heptapeptide analog H, Asp-Arg-Phe-Val-Gly-Leu-Met-NH2 (peptide)
peptide: DRFVGLM-NH2
notes: synthetic heptapeptide analog of neurokinin A, Fmoc solid-phase synthesis; also called Compound H; Cmpd H
B4: Heptapeptide analog C, Asp-Arg-Phe-Val-Gly-(NMe-Leu)-Met-NH2 (peptide)
peptide: DRFVGLM
HELM: PEPTIDE1{D.R.F.V.G.[meL].M.[am]}$$$$V2.0; N-terminus assumed
SMILES: CSCC[C@H](NC(=O)[C@H](CC(C)C)N(C)C(=O)CNC(=O)[C@@H](NC(=O)[C@H](Cc1ccccc1)NC(=O)[C@H](CCCNC(=N)N)NC(=O)[C@@H](N)CC(=O)O)C(C)C)C(N)=O
notes: synthetic heptapeptide analog of neurokinin A, Fmoc solid-phase synthesis; also called Compound C; Cmpd C
B5: Heptapeptide analog E, Asp-Lys-Phe-Val-(β-Ala)-Leu-Met-NH2 (peptide)
peptide: DKFVALM
HELM: PEPTIDE1{D.K.F.V.[bAla].L.M.[am]}$$$$V2.0; N-terminus assumed
SMILES: CSCC[C@H](NC(=O)[C@H](CC(C)C)NC(=O)CCNC(=O)[C@@H](NC(=O)[C@H](Cc1ccccc1)NC(=O)[C@H](CCCCN)NC(=O)[C@@H](N)CC(=O)O)C(C)C)C(N)=O
notes: synthetic heptapeptide analog of neurokinin A, Fmoc solid-phase synthesis; also called Compound E; Cmpd E
B6: Heptapeptide analog I, Asp-Arg-Phe-Val-(β-Ala)-Leu-Met-NH2 (peptide)
peptide: DRFVALM
HELM: PEPTIDE1{D.R.F.V.[bAla].L.M.[am]}$$$$V2.0; N-terminus assumed
SMILES: CSCC[C@H](NC(=O)[C@H](CC(C)C)NC(=O)CCNC(=O)[C@@H](NC(=O)[C@H](Cc1ccccc1)NC(=O)[C@H](CCCNC(=N)N)NC(=O)[C@@H](N)CC(=O)O)C(C)C)C(N)=O
notes: synthetic heptapeptide analog of neurokinin A, Fmoc solid-phase synthesis; also called Compound I; Cmpd I
B7: Heptapeptide analog B, Asp-Arg-Phe-Val-Gly-(NMe-Leu)-Nle-NH2 (peptide)
peptide: DRFVG[NMeL][Nle]-NH2
notes: synthetic heptapeptide analog of neurokinin A, Fmoc solid-phase synthesis; also called Compound B; Cmpd B
B8: Heptapeptide analog G, Asp-Lys-Phe-Val-(β-Ala)-Leu-Nle-NH2 (peptide)
peptide: DKFVALX
HELM: PEPTIDE1{D.K.F.V.[bAla].L.[Nle].[am]}$$$$V2.0; N-terminus assumed
SMILES: CCCC[C@H](NC(=O)[C@H](CC(C)C)NC(=O)CCNC(=O)[C@@H](NC(=O)[C@H](Cc1ccccc1)NC(=O)[C@H](CCCCN)NC(=O)[C@@H](N)CC(=O)O)C(C)C)C(N)=O
notes: synthetic heptapeptide analog of neurokinin A, Fmoc solid-phase synthesis; also called Compound G; Cmpd G
B9: Heptapeptide analog K, Asp-Arg-Phe-Val-(β-Ala)-Leu-Nle-NH2 (peptide)
peptide: DRFVALX
HELM: PEPTIDE1{D.R.F.V.[bAla].L.[Nle].[am]}$$$$V2.0; N-terminus assumed
SMILES: CCCC[C@H](NC(=O)[C@H](CC(C)C)NC(=O)CCNC(=O)[C@@H](NC(=O)[C@H](Cc1ccccc1)NC(=O)[C@H](CCCNC(=N)N)NC(=O)[C@@H](N)CC(=O)O)C(C)C)C(N)=O
notes: synthetic heptapeptide analog of neurokinin A, Fmoc solid-phase synthesis; also called Compound K; Cmpd K

target: T1, human NK2 Receptor; test: radioligand competition, displacement of 0.1 nM [125I]-NKA from CHO-hNK2 membranes
Experimental: (§1) Filtration Assays: Stock solutions of compounds (10 mM) were prepared in DMSO and stored at −20° C. until use. Further dilutions were performed in DMSO to provide an 11-point concentration response curve (CRC) spanning final concentrations from 0.01 nM to 10 μM. Radioligand binding experiments were performed immediately after transferring 2 μL of each concentration of test compound to a 96-well plate. […] After drying for 1 h at 40° C., 50 μL of Microscint-20 was added to each filter plate and bound radioactivity was measured using a Microplate TopCount (Packard C9912). […] Filters were washed 4 times with 1 mL ice cold 0.9% NaCl and placed into pico vials with 4 mL of Filter Count.

Row | Ki | Binder
1 | 1.74 nM | B1
2 | 0.2 nM | B2
3 | 0.31 nM | B3
4 | 0.12 nM | B4
5 | 2.11 nM | B5
6 | 0.88 nM | B6
7 | 0.59 nM | B7
8 | 16.4 nM | B8
9 | 6.85 nM | B9

target: T1, human NK2 Receptor; test: ratio of Ki hNK1R/hNK2R from the radioligand competition assays
Experimental: as §1

Row | hNK2 selectivity ratio | Binder
10 | 72.5 ratio | B1
11 | 27.1 ratio | B3
12 | 167 ratio | B4
13 | 122 ratio | B5
14 | 108 ratio | B6
15 | 558 ratio | B7
16 | 189 ratio | B8
17 | 176 ratio | B9

target: T2, human NK1 Receptor (human, UniProt P25103 1-407); test: radioligand competition, displacement of 5.0 nM [3H]-septide from CHO-hNK1 membranes
T2 construct: whole, on cells; calcium assays used intact CHO-hNK1 cells; also called hNK1R; hNK1
T2 sequence (P25103 whole entry): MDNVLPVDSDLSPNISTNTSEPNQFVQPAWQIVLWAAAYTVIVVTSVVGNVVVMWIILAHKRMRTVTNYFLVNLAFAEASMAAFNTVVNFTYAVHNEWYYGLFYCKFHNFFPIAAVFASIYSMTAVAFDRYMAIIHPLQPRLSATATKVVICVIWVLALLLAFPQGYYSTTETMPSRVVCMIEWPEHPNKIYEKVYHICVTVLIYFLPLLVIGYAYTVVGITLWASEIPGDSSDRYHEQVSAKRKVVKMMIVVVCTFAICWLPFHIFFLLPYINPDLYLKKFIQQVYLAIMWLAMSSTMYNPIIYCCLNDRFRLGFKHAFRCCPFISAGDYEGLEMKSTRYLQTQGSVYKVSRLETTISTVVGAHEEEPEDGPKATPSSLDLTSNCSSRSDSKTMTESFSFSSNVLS
Experimental: as §1

Row | Ki | Binder
18 | 126 nM | B1
19 | 50.1 nM | B2
20 | 8.32 nM | B3
21 | 20.9 nM | B4
22 | 257 nM | B5
23 | 95.5 nM | B6
24 | 331 nM | B7
25 | 3090 nM | B8
26 | 1200 nM | B9

target: T2, human NK1 Receptor; test: cell-based or functional assay

Row | maximal calcium response compared to Substance P | Binder
27 | > 90% | B1
28 | > 90% | B2
29 | > 90% | B3
30 | > 90% | B4
31 | > 90% | B5
32 | > 90% | B6
33 | > 90% | B7
34 | > 90% | B8
35 | > 90% | B9
36 | > 90% | DKFVGLM-NH2 [Heptapeptide analog D, Asp-Lys-Phe-Val-Gly-Leu-Met-NH2]

target: T1, human NK2 Receptor; test: cell-based or functional assay

Row | maximal calcium response compared to Neurokinin A | Binder
37 | > 80% | B1
38 | > 80% | B2
39 | > 80% | B3
40 | > 80% | B4
41 | > 80% | B5
42 | > 80% | B6
43 | > 80% | B7
44 | > 80% | B8
45 | > 80% | B9
46 | > 80% | DKFVGLM-NH2 [Heptapeptide analog D, Asp-Lys-Phe-Val-Gly-Leu-Met-NH2]

target: T2, human NK1 Receptor; test: cell-based or functional assay; remark: another data set of the same source

Row | hNK1 EC50 (intracellular calcium mobilization, FLIPR, CHO-hNK1 cells) | Binder
47 | 1.71 nM | B1
48 | 0.95 nM | B2
49 | 0.16 nM | B3
50 | 0.3 nM | B4
51 | 6.31 nM | B5
52 | 1.83 nM | B6
53 | 5.84 nM | B7
54 | 78.2 nM | B8
55 | 29.5 nM | B9

target: T1, human NK2 Receptor; test: cell-based or functional assay; remark: another data set of the same source

Row | hNK2 EC50 (intracellular calcium mobilization, FLIPR, CHO-hNK2 cells) | hNK2 selectivity ratio (EC50 hNK1R/hNK2R) | Binder
56 | 0.2 nM | 9 ratio | B1
57 | 0.14 nM |  | B2
58 | 0.19 nM | 0.8 ratio | B3
59 | 0.16 nM | 2 ratio | B4
60 | 0.18 nM | 36 ratio | B5
61 | 0.15 nM | 12 ratio | B6
62 | 0.08 nM | 70 ratio | B7
63 | 3 nM | 26 ratio | B8
64 | 1.16 nM | 25 ratio | B9

Reference: patent US20200262868A1 (DIGNIFY THERAPEUTICS, published 2020)
